Measurements taken from paper PMC4219823, “A Nuclear Factor of High Mobility Group Box Protein in Toxoplasma gondii”.

Molecular target: T1, TgGRA1 (Toxoplasma gondii, UniProt P13403 25-190)
T1 sequence: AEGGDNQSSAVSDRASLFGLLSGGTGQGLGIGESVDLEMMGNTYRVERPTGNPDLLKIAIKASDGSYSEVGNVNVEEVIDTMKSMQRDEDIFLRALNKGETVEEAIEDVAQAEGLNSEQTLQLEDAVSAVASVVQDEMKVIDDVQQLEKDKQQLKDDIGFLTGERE
Experiment: EMSA; 2 mg/mL protein
Conditions: protein: recombinant; tags: His; label: biotin (TdT labeling); four-way junction of 4 strands

B1: 4H cruciform DNA (4H-a/4H-b/4H-c/4H-d) (structured_DNA)
DNA 1: AACAGTAGCTTATTCGAGCTCGCGCCCTATCACGACGACTA
DNA 2: GTAGTCGTCGTGATAGGTGCAGGGGTTATAGGG
DNA 3: CCCTATAACCCCTGCATTGAATTCCAGTCTGATAA
DNA 4: TTTATCAGACTGGAATTCAAGCGCGAGCTCGAATAAGCTACTGT
B1: no binding.
